# Source: the supplement of paper PMC12764529
# ± gives the half width of the 95% confidence interval.
# Tests used:
# [1] = folding stability dG unfold from trypsin proteolysis; higher = more stable
# Summary of the method: (§1)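 Digests were run with trypsin and chymotrypsin at 11 concentrations in threefold dilutions, plus a no-protease condition, on designed mini-proteins in a PA-tagged cDNA display construct. The mini-proteins were under 80 residues, had no cysteine, and were kept only when AlphaFold2 dimer inter-PAE was above 15. After sequencing, Bayesian fitting of the counts gave K50, from which unfolding free energy was derived against a sequence-predicted unfolded-state K50 and a shared folded-state K50, per protease or combined.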
# [2] = folding stability dG unfold (combined trypsin and chymotrypsin); higher = more stable
# Summary of the method: as §1
# [3] = folding stability dG unfold from chymotrypsin proteolysis; higher = more stable
# Summary of the method: as §1
Sequence,folding stability dG unfold [1],folding stability dG unfold [2],folding stability dG unfold [3]
SAGKYVTFNFPINIPPGDIKQMLNMIRDIARNLGLKPITDIEIDNIQRDDDYYRIRFEITIKVPPGDLKSAG [r5_575_TrROS],2.44 ± 0.18 kcal/mol,3.34 ± 0.43 kcal/mol,4.29 ± 0.12 kcal/mol
SAGLEVEIVSVEYDEETNTVKVKVKVRNPETNEVTTLELTIKLPPPPPPVEKVEVKEVKDGKVTVTYEESAG [r5_150_TrROS_Hall],1.43 ± 0.18 kcal/mol,1.28 ± 0.48 kcal/mol,0.394 ± 0.13 kcal/mol
SAGLFITVEANPNNGTMRITLYRMEPRKDGDGPKMDIEPIAEIEVPMESPEEARDKAKDKAKNLLDKFNSAG [r5_956_TrROS],1.06 ± 0.064 kcal/mol,1.58 ± 0.11 kcal/mol,1.85 ± 0.14 kcal/mol
SAGLGIWRDPDMWKLEFNLLLPNGYVYKVEVTVTPDGIDVSIEPVPIPPVPTADSPEDAKEYQKQNENQSAG [r5_272_TrROS],1.06 ± 0.13 kcal/mol,2.06 ± 0.35 kcal/mol,2.61 ± 0.18 kcal/mol
SAGLRLVLELELEVPPDVPPERVREAVEREVRDILGRLGIPLPPDARIVVEEVERRGRRVRFRVEVDFPSAG [r14_735_TrMRF],5.13 ± 0.32 kcal/mol,5.01 ± 0.21 kcal/mol,5.08 ± 0.18 kcal/mol
SAGLSEIVKKLFPEEEIEIEVEERTLPGPPNIPVVEFDVRITFKDGRTFRARAIRYPDFVLIEVEPLEPSAG [r14_28_TrMRF],3.26 ± 0.11 kcal/mol,3.62 ± 0.11 kcal/mol,3.75 ± 0.065 kcal/mol
SAGLSPQVRDWLRDLFQEEGFKVKEIDVQPHPNGQMYIKINYPNGKPIKEIPVPPGMDTPEQALKMIRKSAG [r5_352_TrROS],-0.00734 ± 0.11 kcal/mol,0.312 ± 0.07 kcal/mol,0.498 ± 0.13 kcal/mol
SAGLVVTKLPGDGTLRITLPPPGAPLVLTIPLDPGNGTLSVTVTRPDGRSETYTFPGGSIDEVIERLLSAGG [r19_159_JUSTAS],2.37 ± 0.074 kcal/mol,2.72 ± 0.093 kcal/mol,2.902 ± 0.021 kcal/mol
SAGMATTTELPNGFLTTYEDGTTSFIPAEPPEVPVTTVPVTSPEEAAAAVAAAGLSVEVVTADSVTAPASAG [r5_328_JUSTAS],2.06 ± 0.091 kcal/mol,1.63 ± 0.07 kcal/mol,1.2 ± 0.027 kcal/mol
SAGMDDAEAEKLALEEAEKIAKEAGVPEIEVEVERTPSDRWRATIKFPKTGKTYTIELVGDEPSLVEKGSAG [r14_925_JUSTAS],1.01 ± 0.049 kcal/mol,1.1 ± 0.14 kcal/mol,1.27 ± 0.2 kcal/mol
SAGMDIELVVPIESPGSPEEIEKTVEELKEKLEKLGYKVEVSREIHPVGDKLVATITIKITAPPDLPLLSAG [r5_217_JUSTAS],3.49 ± 0.28 kcal/mol,2.85 ± 0.16 kcal/mol,2.31 ± 0.095 kcal/mol
SAGMDIIKELLEKNPKPKVIRMHMNPPNGYFRIQVNGKPIDLPLPPGHYEMEFVVDPKGKIEDVKPHPMSAG [r5_329_TrROS],0.0656 ± 0.15 kcal/mol,0.462 ± 0.16 kcal/mol,0.51 ± 0.16 kcal/mol
SAGMDMEEAEKLAEEIAEQLAKELEKKTGIKPEKIKIEVTVTKLPDGSYLITIKATLEDKEVEKTYTIASAG [r14_226_JUSTAS],3.11 ± 0.21 kcal/mol,2.68 ± 0.12 kcal/mol,2.28 ± 0.066 kcal/mol
SAGMDPDDPDYMIFINLDIKLEVEPDPDNGKPYVKLEIRITNIMVFDPDNGKMEMEPIEIEMTLPPDDISAG [r5_270_TrROS],1.3 ± 0.083 kcal/mol,2.48 ± 0.3 kcal/mol,3.09 ± 0.17 kcal/mol
SAGMEEEVEERTLPDGSPVTVTTFTDPATGKRTVFVRYPETGEWEVRDEEGNLIKKYGPVSFEEAKKELSAG [r5_757_JUSTAS],1.67 ± 0.024 kcal/mol,1.97 ± 0.09 kcal/mol,2.04 ± 0.064 kcal/mol
SAGMEEKLVEAVFEEGPLEEAVEFIRDFLESEGYEVEPLEVEVLSVEETEEGPRVRVRARVLVRPPDASAGG [r19_325_TrMRF],1.11 ± 0.081 kcal/mol,1.34 ± 0.18 kcal/mol,1.52 ± 0.16 kcal/mol
SAGMEELAKELAEKLAEELPPGWKIVEIKVERLEDGTLRVRITIYRLDENGKLVEKREIEIEIPLEELSAGG [r19_28_TrROS_Hall],3.91 ± 0.22 kcal/mol,4.5 ± 0.15 kcal/mol,4.63 ± 0.081 kcal/mol
SAGMEEVEITIKITIEVPEGEEVTPEELAEALREAGFEIVEVKVEKTEDGRKRVTVEIKIRLTPEELEKSAG [r5_167_TrROS_Hall],2.31 ± 0.2 kcal/mol,2.23 ± 0.19 kcal/mol,2.02 ± 0.15 kcal/mol

Sequence,folding stability dG unfold [1],folding stability dG unfold [2],folding stability dG unfold [3]
SAGMEFPANTTVELTLTLTFPVPLPGEGTGPVTLTYTLRLEVRPKPRIPLPDPALRELLERLGLSPDLLSAG [r5_624_TrMRF],3.88 ± 0.39 kcal/mol,4.43 ± 0.4 kcal/mol,4.88 ± 0.13 kcal/mol
SAGMEKKTFTFPTRTVLVVRGPDGTVLVVVDDPDGDPEVLTPDGTPVPYVDLPNGQRLYRFPAALFEKVSAG [r5_457_TrMRF],2.1 ± 0.035 kcal/mol,2.88 ± 0.063 kcal/mol,3.182 ± 0.023 kcal/mol
SAGMEVEYTLTFELPGGLALRVTAKVRFNPETNELEVLELKVELLPLPPAPPPFISPEEAEKNGLLPEESAG [r5_393_TrMRF],3.81 ± 0.28 kcal/mol,4.5 ± 0.35 kcal/mol,4.44 ± 0.27 kcal/mol
SAGMEVKITVEREEDGTLRITITVRPDMTPEELAALLEEELGLEVRVVRDEETGERVLEIEIPLPEELESAG [r5_742_TrROS_Hall],2.64 ± 0.12 kcal/mol,2.39 ± 0.11 kcal/mol,2.16 ± 0.072 kcal/mol
SAGMEYLEVKVTIEPKLPEELREKLKGKKVTVTIIVPKEMSEEEKKKLLEELRDLGVKKVEIKSLEELKSAG [r5_60_TrROS_Hall],1.65 ± 0.085 kcal/mol,1.89 ± 0.11 kcal/mol,1.93 ± 0.077 kcal/mol
SAGMGEAELAAARAANPDRPLVPVETYEIPLPPDVSLEEVEKELREKYPPGKVKVTADPATGTVTITISSAG [r5_694_JUSTAS],-0.221 ± 0.14 kcal/mol,0.684 ± 0.15 kcal/mol,0.969 ± 0.04 kcal/mol
SAGMGLVGRTKDGKWIPAADLTEEQLKDMELDLGEPLPPVVVKVEVEWKLSPEDKLEVKLKVEVFVEGSAGG [r19_232_TrMRF],1.02 ± 0.15 kcal/mol,2.17 ± 0.2 kcal/mol,2.87 ± 0.07 kcal/mol
SAGMGPNEVKPIEIEFEVYETGEGEPYLVGKAIAKLYVDPVEGTVRLEIKDPEKPEPFITFEFPVEEISAGG [r19_413_TrMRF],1.38 ± 0.039 kcal/mol,1.94 ± 0.065 kcal/mol,2.22 ± 0.037 kcal/mol
SAGMGVSTFPVEIVTKPDDITEEELKKRAIERLKKLFPGVKLKEVKFDIPVRELPGDEIVITMNITVNVSAG [r14_145_JUSTAS],1.57 ± 0.068 kcal/mol,1.33 ± 0.056 kcal/mol,1.01 ± 0.035 kcal/mol
SAGMIDYIEIKPEKLPNGKYKVTITIYDSSTGTTTTYEKEMTPEEAKELAEKIKESNPDKPVKFGNLESAGG [r19_317_JUSTAS],2.06 ± 0.093 kcal/mol,1.93 ± 0.2 kcal/mol,1.78 ± 0.089 kcal/mol
SAGMIEIKSEDGSTFRIEFDKETGEVKVEYDKNTGVVKVTLPDGKEVEIEIEGMSLEEVLKKLEELLKKSAG [r5_447_TrROS_Hall],2.01 ± 0.19 kcal/mol,1.94 ± 0.22 kcal/mol,1.78 ± 0.13 kcal/mol
SAGMIEKLIREAFPAGAKSIRIEVRRLPDGSLLVRIDIHFDDPEVRRALADRIEELLGLPIPDLRVSPDSAG [r5_542_TrMRF],2.26 ± 0.035 kcal/mol,2.81 ± 0.042 kcal/mol,3.067 ± 0.028 kcal/mol
SAGMIKITIITENGEEITIEIPENMSEEELKELAEKIAKEIAKKLNIPKVKIKKIKIEKIELTPEQIKKSAG [r5_377_TrROS_Hall],0.887 ± 0.077 kcal/mol,1.89 ± 0.36 kcal/mol,1.97 ± 0.098 kcal/mol
SAGMIVTVLSKEVDPATGSTTTYSVSTDPETGETFLYTTTTTGDTVTTTRTVFFPGTGTTSTSTTTTSASAG [r5_150_JUSTAS],2.17 ± 0.056 kcal/mol,2.73 ± 0.046 kcal/mol,3.019 ± 0.017 kcal/mol
SAGMKEGEVEKVEVEVEITIEVYNENGEKVKTFKAKVKVEVVRNENGELYVKAEIEFEDGTKFEFVVKLSAG [r5_580_TrROS_Hall],2.96 ± 0.35 kcal/mol,3.81 ± 0.54 kcal/mol,3.71 ± 0.09 kcal/mol
SAGMKEKAIDALKEFFEEEGIKVKKIVIEEKPDGTYKITVYGENGKPIFEIEVPKDVKTSEELKKLIKKSAG [r5_352_TrMRF],2.71 ± 0.52 kcal/mol,3.61 ± 0.3 kcal/mol,3.67 ± 0.12 kcal/mol
SAGMKETLKVKIKVKLSEEQREKLKKALEELGATVEVDEETGEVTVEVSAEQVEALKKIPGVEEIEVESAGG [r19_212_TrROS_Hall],3.22 ± 0.18 kcal/mol,2.76 ± 0.14 kcal/mol,2.61 ± 0.24 kcal/mol
SAGMKIEEKDGYLVITFKTKEEAEEAAKKLKELFPDAEIVEIKVEKDENGNETVTIVIKLKNLSPEALKSAG [r5_857_TrROS_Hall],1.53 ± 0.077 kcal/mol,1.85 ± 0.23 kcal/mol,2.04 ± 0.12 kcal/mol
